{"source": "paper PMC2629542", "target": "DraE R86G (E. coli)", "experiment": "SPR", "data": [{"substance": "N-domain of CEA (domain or fragment)", "values": [{"measurement": "fold decrease in affinity against DraE", "value": "> 7", "unit": "fold"}]}]}
